Laboratory results as given in patent US5622828.

Experiments:
Experiment in all cases: filter
[1] = target: T1, secretory phospholipase A2 (sPLA2) (Homo sapiens) (UniProt P14555); details: TBSC, 37 C
T1 sequence: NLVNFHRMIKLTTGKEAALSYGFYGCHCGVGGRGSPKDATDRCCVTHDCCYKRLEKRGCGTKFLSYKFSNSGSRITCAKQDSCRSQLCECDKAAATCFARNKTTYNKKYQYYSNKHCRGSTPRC

[2] = system: immunoglobulin G (IgG) (Homo sapiens); details: 2'-NH2 all C and U, TBSC
[3] = target: C1q (printed Clq) (Homo sapiens) (UniProt P02745+P02746+P02747); details: 2'-NH2 all C and U; random pool; TBSC
Sequence of C1q (printed Clq) (Homo sapiens) (P02745 23-245, chain 1 of 3): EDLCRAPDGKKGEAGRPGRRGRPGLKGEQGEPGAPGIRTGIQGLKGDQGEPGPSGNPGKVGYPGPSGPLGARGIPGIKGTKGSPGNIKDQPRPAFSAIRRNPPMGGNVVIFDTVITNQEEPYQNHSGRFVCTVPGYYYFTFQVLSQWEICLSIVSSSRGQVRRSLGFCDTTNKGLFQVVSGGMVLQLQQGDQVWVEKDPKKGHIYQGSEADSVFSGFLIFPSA
Sequence of C1q (printed Clq) (Homo sapiens) (P02746 28-253, chain 2 of 3): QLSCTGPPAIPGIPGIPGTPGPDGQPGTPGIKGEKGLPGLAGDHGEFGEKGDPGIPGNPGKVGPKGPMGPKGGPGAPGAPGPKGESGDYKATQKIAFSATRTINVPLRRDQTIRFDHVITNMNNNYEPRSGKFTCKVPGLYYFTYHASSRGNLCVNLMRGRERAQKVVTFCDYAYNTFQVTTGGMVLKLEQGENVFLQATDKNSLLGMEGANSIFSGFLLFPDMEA
Sequence of C1q (printed Clq) (Homo sapiens) (P02747 29-245, chain 3 of 3): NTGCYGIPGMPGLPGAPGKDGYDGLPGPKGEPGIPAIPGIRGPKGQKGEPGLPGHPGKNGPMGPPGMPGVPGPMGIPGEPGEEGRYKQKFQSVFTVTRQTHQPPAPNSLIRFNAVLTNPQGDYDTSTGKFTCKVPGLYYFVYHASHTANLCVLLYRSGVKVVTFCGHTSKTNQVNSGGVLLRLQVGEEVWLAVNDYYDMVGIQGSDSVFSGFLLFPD

[4] = target: basic fibroblast growth factor (bFGF) (Homo sapiens) (UniProt P09038); details: random pool, TBSC
Sequence of basic fibroblast growth factor (bFGF) (Homo sapiens) (P09038 143-288): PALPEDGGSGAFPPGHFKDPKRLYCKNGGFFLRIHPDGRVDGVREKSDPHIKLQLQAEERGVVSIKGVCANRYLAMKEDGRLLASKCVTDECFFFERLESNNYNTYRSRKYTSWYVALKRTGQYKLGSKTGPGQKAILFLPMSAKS

[5] = target: T2, neutrophil elastase (Homo sapiens) (UniProt P08246); details: 2'-NH2 all C and U; random pool; TBSC
T2 sequence: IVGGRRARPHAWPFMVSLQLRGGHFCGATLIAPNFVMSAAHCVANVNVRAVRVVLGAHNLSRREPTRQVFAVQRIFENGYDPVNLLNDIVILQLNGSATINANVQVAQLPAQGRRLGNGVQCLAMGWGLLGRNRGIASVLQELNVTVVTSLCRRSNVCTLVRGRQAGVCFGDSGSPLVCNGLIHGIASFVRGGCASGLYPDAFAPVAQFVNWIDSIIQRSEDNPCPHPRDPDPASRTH

[6] = target: lysozyme (egg white) (Gallus gallus) (UniProt P00698); details: random pool; TBSC
Sequence of lysozyme (egg white) (Gallus gallus) (P00698 19-147): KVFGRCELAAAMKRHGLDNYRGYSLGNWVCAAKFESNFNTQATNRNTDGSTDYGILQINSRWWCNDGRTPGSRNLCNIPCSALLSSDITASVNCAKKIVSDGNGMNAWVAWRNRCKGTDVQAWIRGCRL

[7] = target: pancreatic phospholipase A2 (bpPLA2) (Bos taurus) (UniProt P00593); details: random pool; TBSC
Sequence of pancreatic phospholipase A2 (bpPLA2) (Bos taurus) (P00593 23-145): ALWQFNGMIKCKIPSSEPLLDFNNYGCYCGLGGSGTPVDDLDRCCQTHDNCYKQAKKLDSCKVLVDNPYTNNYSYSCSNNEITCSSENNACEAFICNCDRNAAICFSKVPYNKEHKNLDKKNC

[8] = 2'-NH2 all C and U, random starting pool

“GGGAGGACGAUGCGGNNNNNNNNNNNNNNNNNNNNNNNNNNNNNNNNNNNNNNNNNNNNNNNNNNCAGACGACUCGCCCGA [50N7 random RNA]” gave a Kd [1, 8] of 71 nM.
With “GGGAAAAGCGAAUCAUACACAAGACCGGCCGGCGCCAUAGCCGAGAUCCGAGGUGUUGAACGAUAACUCGGUGCUCCGCCAGAGACCAACCGAGAA [NN19]” the Kd ([2]; specificity control) was > 5000 nM.
In the case of “GGGAGCUCAGAAUAAACGCUCAANNNNNNNNNNNNNNNNNNNNNNNNNNNNNNUUCGACAUGAGGCCCGGAUCCGGC [30N1F random RNA]”, the Kd ([1]; 2'-F all C and U, random 2'-F pool) is reported as 35 nM.
Sequence “GGGAGCUCAGAAUAAACGCUCAAGANCUCUGCUUACAGCCCGGCUGGGACACUUCGACAUGAGGCCCGGAUCCGGC [75t (75)]” has a Kd ([1]; biphasic, Kd2 420 nM, mole fraction 0.40) of 0.9 nM.
For “GGGAAAAGCGAAUCAUACACAAGANNNNNNNNNNNNNNNNNNNNNNNNNNNNNNNNNNNNNNNNNNNNNNNNNNGCUCCGCCAGAGACCAACCGAGAA [50N9 random RNA]”, the Kd [3] was 1000 nM, the Kd ([4]; 2'-NH2 all C and U) was 170 nM and the Kd ([2]; random pool) was > 5000 nM. The Kd [5] was 70 nM and the Kd [1, 8] was 48 nM.
In the case of “GGGAAAAGAAGACCGGCCGGCGCCAUAGCCGAGAUCCGAGGUGUUGCCGAGAA [NN19.15]”, the Kd ([2]; specificity control, like random RNA) is reported as 4300 nM.
“GGGAGCUCAGAAUAAACGCUCAANNNNNNNNNNNNNNNNNNNNNNNNNNNNNNUUCGACAUGAGGCCCGGAUCCGGC [30N1 random RNA]” showed a Kd [4] of 270 nM, a Kd [6] of 1650 nM and a Kd [7] of 22500 nM. The Kd ([1]; random pool, text of Example 2 gives 240 nM) was 360 nM.
